# Target: HDM2 (human double minute 2) protein (human, UniProt Q00987 1-491)
# Assay: fluorescence polarisation
# Settings: both partners purified
# HDM2 (human double minute 2) protein, sequence (Q00987 whole entry): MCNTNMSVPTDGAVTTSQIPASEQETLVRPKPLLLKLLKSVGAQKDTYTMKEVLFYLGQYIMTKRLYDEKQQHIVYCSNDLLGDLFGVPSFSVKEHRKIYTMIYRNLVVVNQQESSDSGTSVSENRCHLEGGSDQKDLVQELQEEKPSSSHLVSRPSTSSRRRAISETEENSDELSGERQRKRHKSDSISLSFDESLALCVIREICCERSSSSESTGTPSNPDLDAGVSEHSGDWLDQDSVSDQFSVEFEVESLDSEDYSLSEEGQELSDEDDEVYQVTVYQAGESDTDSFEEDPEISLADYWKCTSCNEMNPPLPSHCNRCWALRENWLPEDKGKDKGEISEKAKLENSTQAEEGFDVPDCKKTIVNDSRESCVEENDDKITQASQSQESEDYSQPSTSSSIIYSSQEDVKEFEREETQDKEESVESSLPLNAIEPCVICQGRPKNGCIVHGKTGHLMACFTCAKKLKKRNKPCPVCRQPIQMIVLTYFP
binder,measurement,value
"PCFYDYWQCL (not fully specified; stapled (the two Cys residues at i and i+7 cross-linked), source: synthetic peptide) [stapled HDM2-opt peptide]",IC50,6.9 ± 1.9 µM

# Source: PMC9645375 (Chemical Science, 2022)
